Data on 1 protein can be found in paper PMC6648343, “Remodeling and destabilization of chromosome 1 pericentromeric heterochromatin by SSX proteins” (Nucleic Acids Research, 2019).

This data set deals with the molecule itself. Put plainly: cross-linking; recombinant SSX2 diluted to indicated concentrations in 20 mM PBS (pH 7.4), 50 mM NaCl; 0.1% glutaraldehyde, 2 min at 37°C, quenched with glycine; oligomerization analysed by Western blotting. (A western blot detects proteins with antibodies after separation by electrophoresis.)

B1: recombinant SSX2 (natural protein, UniProt Q16385 1-188, looked up)
chain: MNGDDAFARRPTVGAQIPEKIQKAFDDIAKYFSKEEWEKMKASEKIFYVYMKRKYEAMTKLGFKATLPPFMCNKRAEDFQGNDLDNDPNRGNQVERPQMTFGRLQGISPKIMPKKPAEEGNDSEEVPEASGPQNDGKELCPPGKPTTSEKIHERSGPKRGEHAWTHRLRERKQLVIYEEISDPEEDDE
notes: SSX2; GenBank CAA60111.1 is printed for SSX2 in the structure modelling; also called recombinant, purified SSX2; source: recombinant, purified
As for B1, the binding result is “binds”.
